Patent US6635429B1, “Heterodimeric nuclear receptors proteins, genes encoding same, and usage thereof” (Institut National de la Sante et de la Recherche Medicale, dated 1993)

Target: the molecule itself
Test: cell-based or functional assay

B1: human RARα1 (a.a. 1 to 462) (receptor)
chain: MASNSSSCPTPGGGHLNGYPVPPYAFFFPPMLGGLSPPGALTTLQHQLPVSGYSTPSPATIETQSSSSEEIVPSPPSPPPLPRIYKPCFVCQDKSSGYHYGVSACEGCKGFFRRSIQKNMVYTCHRDKNCIINKVTRNRCQYCRLQKCFEVGMSKESVRNDRNKKKKEVPKPECSESYTLTPEVGELIEKVRKAHQETFPALCQLGKYTTNNSSEQRVSLDIDLWDKFSELSTKCIIKTVEFAKQLPGFTTLTIADQITLLKAACLDILILRICTRYTPEQDTMTFSDGLTLNRTQMHNAGFGPLTDLVFAFANQLLPLEMDDAETGLLSAICLICGDRQDLEQPDRVDMLQEPLLEALKVYVRKRRPSRPHMFPKMLMKITDLRSISAKGAERVITLKMEIPGSMPPLIQEMLENSEGLDTLSGQPGGGGRDGGGLAPPPGSCSPSLSPSSNRSSPATHSP
OMPdecase activity of the DR5-URA3 reporter in yeast: ~5 fold
